Results on two molecules are retold here after patent publication US20150086558A1 (ACADEMIA SINICA, published 2015).

The target in experiment [1] is T1, P1 peptide, junction peptide of CH4-CεmX (SVNPGLAGGSAQSQRAPDRVL) (human).
T1 construct: Synthetic peptide coated on ELISA plates at 10 ug/mL
T1 peptide: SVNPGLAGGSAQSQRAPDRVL
As to the kind of experiment: ELISA screen of hybridomas on coated P1 peptide. The method, then: Hybridoma cells secreting antibodies with the desired antigen-binding activities were screened as follows. Microtiter plates were coated by incubating with 10 μg/mL of P1 peptide and various other peptides or 1 μg/mL of various recombinant CεmX-fusion proteins in carbonate buffer, 0.1M, pH 9.6, overnight at 4° C. The wells were blocked with 1% BSA in PBS, pH=7.3 for 1 hour and incubated with the antisera or control antibodies at various dilutions for 1 hour at 37° C. After washing, the ligand-bound antibodies were detected by HRP-conjugated goat anti-mouse IgG, Fcγ fragment specific (Jackson ImmunoResearch) at 1:10,000 and incubated for 1 hour at 37° C., followed by incubation with TMB substrate (Clinical Scientific Products). The OD was determined at 450 nm. Positive clones were selected for further characterization.

For experiment [2], the target named is T2, P1.15 peptide SVNPGLAGGSAQS (human).
T2 peptide: SVNPGLAGGSAQS
Nature of the experiment: ELISA on coated synthetic peptide. On the technique in general: ELISA stands for enzyme-linked immunosorbent assay.

For experiment [3], the target named is T3, IgE.CH3-CH4 recombinant protein (UniProt P01854 211-426, limits assumed).
T3 construct: domain: CH3-CH4; Recombinant protein coated at 1 ug/mL in ELISA
T3 sequence (P01854 211-426 limits assumed): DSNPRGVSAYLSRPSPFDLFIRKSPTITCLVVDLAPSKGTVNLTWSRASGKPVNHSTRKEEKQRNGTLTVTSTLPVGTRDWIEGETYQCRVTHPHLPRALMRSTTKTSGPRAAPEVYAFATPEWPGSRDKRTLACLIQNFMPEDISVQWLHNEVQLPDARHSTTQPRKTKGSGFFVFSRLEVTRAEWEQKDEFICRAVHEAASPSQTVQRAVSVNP
Nature of the experiment: ELISA on coated recombinant protein.

B1: monoclonal anti-IgE antibody mAb 5A8 (antibody, V domains shown)
VH: QVQLKQSGPGLVAPSQSLSITCTVSGFSLTDYGVNWVRQPPGKGLEWLGMIWGDGSTDYNSTLKSRLSISKDNSKSQVFLKINSLQTDDTARYYCALNWFAYWGQGTLVTAAA
VL: NIVMTQSPAIMSASPGEKVTMTCSASSSVNYMHWYQQKSGTSPKRWIYDTSKLASGVPARFSGSGSGTSYSLTISSMEAEDAATYYCQQWSSNPWTFGGGTKLEIK
notes: Mouse hybridoma monoclonal antibody; It was detected with anti-mouse IgG reagents
B1: in experiment [1], the binding result is “binds”.

B2: monoclonal anti-IgE antibody mAb 2H9 (antibody, V domains shown)
VH: QVQMQQPGAELVRPGASVKMSCRTSGYTFTNYNVHWLKQTPGQGLEWIGGMYPGNDDILYNQNFKDRATLTADRSSSTAYIQLRSLTSEDSAVYYCTRSGLQGPWFDYWGQGTLVTVSA
VL: DIQMTQSSSYLSVSLGGRVTISCRASDHINNWLAWYQQKPGNAPRLLISSATSLETGVPSRFSGSGSGKDYSLTIISVQTEDVATYYCQQCWITPFTFGSGTKLEIK
notes: Mouse hybridoma monoclonal antibody from BALB/c mice immunized with HBcAg-P1; It was detected with anti-mouse IgG reagents
As for B2, the binding result was “binds” in experiment [2], “binds” in experiment [1] and “no binding” in experiment [3].
